In patent publication US20240024501A1 (BONUM THERAPEUTICS, published 2024):

Target: PD-1-Fc (UniProt Q15116 25-167, limits assumed)
Assay: cell-based or functional assay

Sequence of PD-1-Fc (Q15116 25-167 limits assumed): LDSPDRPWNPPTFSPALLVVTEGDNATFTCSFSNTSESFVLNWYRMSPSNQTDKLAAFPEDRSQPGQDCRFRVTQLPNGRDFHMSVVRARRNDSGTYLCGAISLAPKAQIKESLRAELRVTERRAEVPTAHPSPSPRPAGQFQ

Row | Binder | EC50 of IL-2 activity, HEK-Blue IL-2 reporter cells, PD-1 coated wells | EC50 of IL-2 activity, HEK-Blue IL-2 reporter cells, control wells (no PD-1) | EC50 of IL-2 activity, HEK-Blue IL-2 reporter cells, IgG1 coated wells (no PD-1)
1 | AF4403 (other) heavy 1: QVQLVESGGGVVQPGRSLRLDCKASGITFSNSGMHWVRQAPGKGLEWVAVIWYDGSKRYYADSVKGRFTISRDNSKNTLFLQMNSLRAEDTAVYYCATNDDYWGQGTLVTVSSAKTTAPSVYPLAPVCGDTTGSSVTLGCLVKGYFPEPVTLTWNSGSLSSGVHTFPAVLQSDLYTLSSSVTVTSSTWPSQSITCNVAHPASSTKVDKKIEPRGPTIKPCPPCKCPAPNAAGGPSVFIFPPKIKDVLMISLSPIVTCVVVDVSEDDPDVQISWFVNNVEVHTAQTQTHREDYNSTLRVVSALPIQHQDWMSGKEFKCKVNNKDLGAPIERTISKPKGSVRAPQVYVLPPPEKEMTKKQVSLTCLVKDFMPEDIYVEWTNNGKTELNYKNTEPVLKSDGSYFMYSKLTVEKKNWVERNSYSCSVVHEGLHNHHTTKSFSRTPGGGGGSGGGGSGGGGSGGGGSQVQLVQSGAEVKKPGASVKVSCKASGDTFTRYYVHWVRQAPGQGLEWMGIINPSGGYASYAQKFQGRVTMTRDTSTSTVYMELSSLRSEDTAVYYCAAGLFIWGQGTLVTVSSASGGGGSGGGGSGGGGSHASDIQMTQSPSSLSASVGDRVTITCRASQSIGRYLAWYQQKPGKAPKLLIYSASNLETGVPSRFSGSGSGTDFTLTISSLQPEDFATYYCQQYNSFPVTFGPGTKVDIKGGGSGGGSHHHHHH heavy 2: QVQLVESGGGVVQPGRSLRLDCKASGITFSNSGMHWVRQAPGKGLEWVAVIWYDGSKRYYADSVKGRFTISRDNSKNTLFLQMNSLRAEDTAVYYCATNDDYWGQGTLVTVSSAKTTAPSVYPLAPVCGDTTGSSVTLGCLVKGYFPEPVTLTWNSGSLSSGVHTFPAVLQSDLYTLSSSVTVTSSTWPSQSITCNVAHPASSTKVDKKIEPRGPTIKPCPPCKCPAPNAAGGPSVFIFPPKIKDVLMISLSPIVTCVVVDVSEDDPDVQISWFVNNVEVHTAQTQTHREDYNSTLRVVSALPIQHQDWMSGKEFKCKVNNKDLGAPIERTISKPKGSVRAPQVYVLPPPEEEMTKKQVTLTCMVTDFMPEDIYVEWTNNGKTELNYKNTEPVLDSDGSYFMYSDLRVEKKNWVERNSYSCSVVHEGLHNHHTTESFSRTPGGGGGSGGGGSGGGGSAPTSSSTKKTQLQLEHLLLDLQMILNGINNYKNPKLTDMLTFEFYMPKKATELKHLQCLERELKPLEEVLNLAQSKNFHLRPRDLISNINVIVLELKGSETTFMCEYADETATIVEFLNRWITFCQSIISTLT light: EIVLTQSPATLSLSPGERATLSCRASQSVSSYLAWYQQKPGQAPRLLIYDASNRATGIPARFSGSGSGTDFTLTISSLEPEDFAVYYCQQSSNWPRTFGQGTKVEIKRADAAPTVSIFPPSSEQLTSGGASVVCFLNNFYPKDINVKWKIDGSERQNGVLNSWTDQDSKDSTYSMSSTLTLTKDEYERHNSYTCEATHKTSTSPIVKSFNRNEC | 0.031 nM | 0.062 nM | 
2 | AF4404 (other) heavy 1: QVQLVESGGGVVQPGRSLRLDCKASGITFSNSGMHWVRQAPGKGLEWVAVIWYDGSKRYYADSVKGRFTISRDNSKNTLFLQMNSLRAEDTAVYYCATNDDYWGQGTLVTVSSAKTTAPSVYPLAPVCGDTTGSSVTLGCLVKGYFPEPVTLTWNSGSLSSGVHTFPAVLQSDLYTLSSSVTVTSSTWPSQSITCNVAHPASSTKVDKKIEPRGPTIKPCPPCKCPAPNAAGGPSVFIFPPKIKDVLMISLSPIVTCVVVDVSEDDPDVQISWFVNNVEVHTAQTQTHREDYNSTLRVVSALPIQHQDWMSGKEFKCKVNNKDLGAPIERTISKPKGSVRAPQVYVLPPPEKEMTKKQVSLTCLVKDFMPEDIYVEWTNNGKTELNYKNTEPVLKSDGSYFMYSKLTVEKKNWVERNSYSCSVVHEGLHNHHTTKSFSRTPGGGGGSGGGGSGGGGSGGGGSQVQLVQSGAEVKKPGASVKVSCKASGYTFTDYYMHWVRQAPGQGLEWMGIINPRAGYTSYALKFQGRVTMTRDTSTSTVYMELSSLRSEDTAVYYCTSGWDVWGQGTLVTVSSASGGGGSGGGGSGGGGSHASDIQMTQSPSSLSASVGDRVTITCRASQSISTWLAWYQQKPGKAPKLLIYAASSLDSGVPSRFSGSGSGTDFTLTISSLQPEDFATYYCQQSYSFPVTFGQGTKVEIKGGGSGGGSHHHHHH heavy 2: QVQLVESGGGVVQPGRSLRLDCKASGITFSNSGMHWVRQAPGKGLEWVAVIWYDGSKRYYADSVKGRFTISRDNSKNTLFLQMNSLRAEDTAVYYCATNDDYWGQGTLVTVSSAKTTAPSVYPLAPVCGDTTGSSVTLGCLVKGYFPEPVTLTWNSGSLSSGVHTFPAVLQSDLYTLSSSVTVTSSTWPSQSITCNVAHPASSTKVDKKIEPRGPTIKPCPPCKCPAPNAAGGPSVFIFPPKIKDVLMISLSPIVTCVVVDVSEDDPDVQISWFVNNVEVHTAQTQTHREDYNSTLRVVSALPIQHQDWMSGKEFKCKVNNKDLGAPIERTISKPKGSVRAPQVYVLPPPEEEMTKKQVTLTCMVTDFMPEDIYVEWTNNGKTELNYKNTEPVLDSDGSYFMYSDLRVEKKNWVERNSYSCSVVHEGLHNHHTTESFSRTPGGGGGSGGGGSGGGGSAPTSSSTKKTQLQLEHLLLDLQMILNGINNYKNPKLTDMLTFEFYMPKKATELKHLQCLERELKPLEEVLNLAQSKNFHLRPRDLISNINVIVLELKGSETTFMCEYADETATIVEFLNRWITFCQSIISTLT light: EIVLTQSPATLSLSPGERATLSCRASQSVSSYLAWYQQKPGQAPRLLIYDASNRATGIPARFSGSGSGTDFTLTISSLEPEDFAVYYCQQSSNWPRTFGQGTKVEIKRADAAPTVSIFPPSSEQLTSGGASVVCFLNNFYPKDINVKWKIDGSERQNGVLNSWTDQDSKDSTYSMSSTLTLTKDEYERHNSYTCEATHKTSTSPIVKSFNRNEC | 0.026 nM | 0.064 nM | 
3 | AF4379 (other) heavy: APTSSSTKKTQLQLEHLLLDLQMILNGINNYKNPKLTDMLTFEFYMPKKATELKHLQCLERELKPLEEVLNLAQSKNFHLRPRDLISNINVIVLELKGSETTFMCEYADETATIVEFLNRWITFCQSIISTLTGGGGSGGGGSGGGGSGGGGSQVQLVQSGAEVKKPGASVKVSCKASGDTFTRYYVHWVRQAPGQGLEWMGIINPSGGYASYAQKFQGRVTMTRDTSTSTVYMELSSLRSEDTAVYYCAAGLFIWGQGTLVTVSSAKTTAPSVYPLAPVCGDTTGSSVTLGCLVKGYFPEPVTLTWNSGSLSSGVHTFPAVLQSDLYTLSSSVTVTSSTWPSQSITCNVAHPASSTKVDKKIEPRGPTIKPCPPCKCPAPNAAGGPSVFIFPPKIKDVLMISLSPIVTCVVVDVSEDDPDVQISWFVNNVEVHTAQTQTHREDYNSTLRVVSALPIQHQDWMSGKEFKCKVNNKDLGAPIERTISKPKGSVRAPQVYVLPPPEEEMTKKQVTLTCMVTDFMPEDIYVEWTNNGKTELNYKNTEPVLDSDGSYFMYSKLRVEKKNWVERNSYSCSVVHEGLHNHHTTKSFSRTPGK light: DIQMTQSPSSLSASVGDRVTITCRASQSIGRYLAWYQQKPGKAPKLLIYSASNLETGVPSRFSGSGSGTDFTLTISSLQPEDFATYYCQQYNSFPVTFGPGTKVDIKRADAAPTVSIFPPSSEQLTSGGASVVCFLNNFYPKDINVKWKIDGSERQNGVLNSWTDQDSKDSTYSMSSTLTLTKDEYERHNSYTCEATHKTSTSPIVKSFNRNEC | 0.031 nM |  | 0.062 nM
4 | AF4389 (other) heavy 1: APTSSSTKKTQLQLEHLLLDLQMILNGINNYKNPKLTDMLTFEFYMPKKATELKHLQCLERELKPLEEVLNLAQSKNFHLRPRDLISNINVIVLELKGSETTFMCEYADETATIVEFLNRWITFCQSIISTLTGGGGSGGGGSGGGGSGGGGSQVQLVQSGAEVKKPGASVKVSCKASGHTFTRYYMHWVRQAPGQGLEWMGIINPSGGYATYAQKFQGRVTMTRDTSTSTVYMELSSLRSEDTAVYYCASGLFIWGQGTLVTVSSAKTTAPSVYPLAPVCGDTTGSSVTLGCLVKGYFPEPVTLTWNSGSLSSGVHTFPAVLQSDLYTLSSSVTVTSSTWPSQSITCNVAHPASSTKVDKKIEPRGPTIKPCPPCKCPAPNAAGGPSVFIFPPKIKDVLMISLSPIVTCVVVDVSEDDPDVQISWFVNNVEVHTAQTQTHREDYNSTLRVVSALPIQHQDWMSGKEFKCKVNNKDLGAPIERTISKPKGSVRAPQVYVLPPPEEEMTKKQVTLTCMVTDFMPEDIYVEWTNNGKTELNYKNTEPVLDSDGSYFMYSDLRVEKKNWVERNSYSCSVVHEGLHNHHTTESFSRTPGK heavy 2: QVQLVQSGAEVKKPGASVKVSCKASGHTFTRYYMHWVRQAPGQGLEWMGIINPSGGYATYAQKFQGRVTMTRDTSTSTVYMELSSLRSEDTAVYYCASGLFIWGQGTLVTVSSAKTTAPSVYPLAPVCGDTTGSSVTLGCLVKGYFPEPVTLTWNSGSLSSGVHTFPAVLQSDLYTLSSSVTVTSSTWPSQSITCNVAHPASSTKVDKKIEPRGPTIKPCPPCKCPAPNAAGGPSVFIFPPKIKDVLMISLSPIVTCVVVDVSEDDPDVQISWFVNNVEVHTAQTQTHREDYNSTLRVVSALPIQHQDWMSGKEFKCKVNNKDLGAPIERTISKPKGSVRAPQVYVLPPPEKEMTKKQVSLTCLVKDFMPEDIYVEWTNNGKTELNYKNTEPVLKSDGSYFMYSKLTVEKKNWVERNSYSCSVVHEGLHNHHTTKSFSRTPGGGGSGGGSHHHHHH light: DIQMTQSPSSLSASVGDRVTITCRASQSINSWLAWYQQKPGKAPKLLIYATSTLESGVPSRFSGSGSGTDFTLTISSLQPEDFATYYCQQYYRFPVTFGQGTKVEIKRADAAPTVSIFPPSSEQLTSGGASVVCFLNNFYPKDINVKWKIDGSERQNGVLNSWTDQDSKDSTYSMSSTLTLTKDEYERHNSYTCEATHKTSTSPIVKSFNRNEC | 0.118 nM |  | 1.67 nM
